Experimental data from publication PMC6957489.

Tests used:
[1] = target: t-SNARE heterodimer with syntaxin-1A labeled at position 203 with cy5 (N-N FRET pair) (rat) (UniProt P32851); experiment: FRET or BRET; single-molecule FRET (prism-based TIRF, 100-ms resolution) between cy3-syb2 in v-SNARE 13 nm nanodiscs (ND1) and cy5-syntaxin-1A in t-SNARE nanodiscs; NDs (5 µM) incubated at room temperature 30 min, diluted to 10 pM; no syt1; with EGTA or 500 µM free Ca2+ (Ca2+ had no effect); 100 mM KCl, 25 mM HEPES pH 7.4
[2] = target: t-SNARE heterodimer with syntaxin-1A labeled at position 241 with cy5 (C-C FRET pair) (rat) (UniProt P32851); experiment: as above
[3] = target: t-SNARE heterodimer with syntaxin-1A labeled at position 241 with cy5 (C-C FRET pair) (rat) (UniProt P32851); experiment: FRET or BRET; single-molecule FRET as above, with full-length syt1 co-reconstituted in the v-SNARE nanodisc; values in the absence of Ca2+ (EGTA); subsequent Ca2+ (500 µM free) had only subtle effects, with an increase in the highest C-C FRET peak

syb2 labeled at position 33 with cy3 (N-N FRET pair) (from UniProt P63045 1-116) (natural protein)
FRET ratio (R), peak of the distribution, N-N pair [1]: 0.7

syb2 labeled at position 72 with cy3 (C-C FRET pair) (from UniProt P63045 1-116) (natural protein)
FRET ratio (R), peak of the distribution, C-C pair [2]: 0.2 | FRET ratio (R), C-C pair, first of three states (with apo-syt1) [3]: 0.2 | FRET ratio (R), C-C pair, second of three states (with apo-syt1) [3]: 0.5 | FRET ratio (R), C-C pair, third of three states (with apo-syt1) [3]: 0.7
